Where a chain is given by its changes, count along the chain named.
Tests used:
[1] = target: T1, human endothelin A receptor (hETAR) (human, UniProt P25101 21-427); assay: FACS on CHO-DHFR-ETAR cells against CHO-DHFR- cells
T1 construct: Expressed on stably transfected CHO-DHFR- cells; also called human endothelin receptor; CHO-DHFR-hETAR
T1 sequence: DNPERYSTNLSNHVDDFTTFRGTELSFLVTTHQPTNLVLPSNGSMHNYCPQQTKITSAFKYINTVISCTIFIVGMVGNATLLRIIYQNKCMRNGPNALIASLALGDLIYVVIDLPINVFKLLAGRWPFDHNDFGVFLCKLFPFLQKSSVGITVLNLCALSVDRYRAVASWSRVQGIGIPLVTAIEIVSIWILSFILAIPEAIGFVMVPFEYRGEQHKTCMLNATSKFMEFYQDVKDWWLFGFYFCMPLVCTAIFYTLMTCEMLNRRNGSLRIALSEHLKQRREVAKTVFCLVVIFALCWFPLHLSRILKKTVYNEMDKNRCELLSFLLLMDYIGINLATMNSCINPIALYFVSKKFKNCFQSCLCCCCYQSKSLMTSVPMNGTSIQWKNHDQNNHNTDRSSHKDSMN
Protocol: PBS containing 10 mM EDTA was used to detach and collect 10⁵ CHO-DHFR-hETAR cells into a 1.5 mL EP tube. The supernatant was removed after centrifugation and the negative control sample was resuspended with a loading buffer (PBS, 2% FBS). For the positive control, 200 μL antibody supernatant was added to resuspension cells and incubation at room temperature; the cells were then centrifuged at 1500 rpm to remove the supernatant, washed with a FACS loading buffer and centrifuged again. The cells were resuspended with addition (200 μL/well) of a FITC labeled goat anti-mouse fluorescent antibody at 1:50 dilution (BD Pharmingen) and incubated at room temperature for 30 min in the dark. Supernatant was removed after centrifugation, cells were washed with FACS loading buffer, centrifuged again and resuspended with the loading buffer for analysis.

[2] = target: T1, human endothelin A receptor (hETAR); assay: cell-based or functional assay

B1: anti-ETAR antibody A-12 (antibody, V domains shown)
VH: EVKLVESGGRLVQPGNSLRLSCATSGFTFSDYYMSWVRQTPGRALEWLSFIRNRANGYTTEYSASVKGRFTISRDNSQSILYLHMSTLRPEDSATYYCVRDSYHYGYFDVWGAGTTVTVSS
VL: EIQMTQTPSSLSASLGDRVTITCSASQGINNYLNWYQQKPGGKTRLLIYYTSTLQSGVPSRFSGSGSGTHYSLTISNLEPEDIATYYCQQFSKLRTFGGGTRLEIKR
notes: also called L12H12
- binding result [1]: binds

B2: anti-ETAR antibody A-1 (antibody, V domains shown)
VH: QVTLKESGPGILQPSQTLSLTCSFSGFSLTTSGLGVAWIRQPSGKGLEWLAHIWSDGDTRYYPALKNRLTISKDSSSNQVFLKIARVDTADTATYYCARMKDDSLYFDNWGQGTIFTVSS
VL: DILLTQSPAILSVSPGKRVSFSCRASQNIGTSIHWYQQRTNGSPRLLIKYASKSISGISSRFSGSGSGTDFTLSINSVESEDIAAYYCQHSYSWPWTFGGGTKLEIKR
- calcium flux assay, inhibition of human ETAR (IC50) [2]: 37.9 nM

B3: anti-ETAR antibody A-9 (antibody, V domains shown)
VH: EVQLQQPGGGLVQPGGSLTLSCATSGFTFSSYGMSWVRQTPAKRLELVATISTNGATANYPDSVKGRFTISRDNAKSTLYLQMRSLKSEDTAMYYCATEKGAMGYWGQGTSVTVSS
VL: DVLMTQTPLSLPVSLGDQASISCRSSQNIVHSTGNTYLEWYLQKPGQSPKLLIYKVSNRFSGVPNRFRGSGSGTDFTLKITRVEAEDLGIYYCFQGSHFPFTFGSGTKLEIKR
- calcium flux assay, inhibition of human ETAR (IC50) [2]: 87.8 nM

B4: anti-ETAR antibody A-7 (antibody, V domains shown)
VH: EVHLVESGGGLVQPGGSLKLSCAASGFTFSTYGMSWVRQTPDKRLELVATINTNGGTTYYRDSVKGRFTISRDNAKNTLYLQMSSLKSDDTAMYYCARDYGAMDYWGQGTSVTVSS
VL: B3 VL with Q18H, N28Y, N35T, K50Q, N65D, R68T, K79R, T81S, I90V, Y92F
notes: also called L7H7
- binding result [1]: binds

B5: anti-ETAR antibody A-2 (antibody, V domains shown)
VH: QIQLVQSGAELAKPGASVRMSCETSGYTFTSYWIHWIKERPGQGLEWIGYINPDTDYSEYNQKFKDKARLTADKSSTTAYMELNSLTFDDSAVYYCASAGYYFFDFWGQGTTLTVSS
VL: DIQMTQSPASLSTSVGETVTITCRASENIYSYLAWYQQRQGKSPHLLVNNAKTLAEGVPSRFSGSGSGTHFSLRISGLQPEDFGSYYCQHHYGIPFTFGGGTKLSIKR
notes: also called L2H2
- binding result [1]: binds
